Values joined by “and” are separate entries in the source; they are usually repeats but may differ in a detail not shown here. Equal entries are not always repeated.
Experiment: Homogeneous enzyme immunoassay calibration curves with antibody clones and DAMP-Y-S-G6PDH conjugate
Format: biochemical
Description: MTX antibodies and enzyme conjugates may be advantageously used in accordance with the present disclosure in a homogeneous assay format to detect a MTX analyte in samples. Antibodies may be evaluated by known methods, such as, conjugate inhibition, conjugate modulation, calibration, cross-reactivity and spike-recovery. For these purposes, cloned antibodies (28H3-K1, 32H1-K2, 64H1-K1) is added into the antibody diluent to prepare the antibody reagent. The antibody reagent includes antibody as prepared above, buffer, salts, stabilizers, preservatives, NAD^+, and glucose-6-phosphate. Enzyme conjugate DAMP-Y-S-G6PDH is added into the conjugate diluent to prepare the enzyme conjugate reagent. The enzyme conjugate reagent includes the conjugate, buffer, stabilizers, salts, and preservatives.
A clinical chemistry analyzer useful to evaluate antibodies and enzyme conjugates in a homogeneous enzyme immunoassay format is the Beckman Coulter AU480 (Beckman Coulter, Brea, CA). The Beckman AU480 is an automated biochemistry spectrophotometer analyzer used by medical laboratories to process biological fluid specimens, such as urine, cerebrospinal fluid, oral fluids, plasma and serum. The analyzer is capable of maintaining a constant temperature, pipetting samples, mixing reagents, measuring light absorbance and timing the reaction accurately.
A homogeneous enzyme immunoassay is conducted using a liquid, ready-to-use, two reagent assay as described above. Typically, 2-15 μL MTX analyte-containing sample is incubated with 75-150 μL antibody reagent followed by the addition of the 50-100 μL enzyme conjugate reagent.
The assay is a homogeneous enzyme immunoassay technique used for the analysis of MTX in biological fluids. The assay is based on competition between MTX in the specimen and -MTX or MTX analog (DAMP derivatives of the current invention) labeled with the enzyme glucose-6-phosphate dehydrogenase (G6PDH) for antibody binding sites. Enzyme activity decreases upon binding to the antibody, so the drug concentration in the sample can be measured in terms of enzyme activity. Active enzyme converts nicotinamide adenine dinucleotide (NAD^+) to NADH, resulting in an absorbance change that is measured spectrophotometrically at 340 nm. […] The change in the absorbance at 340 nm can be measured spectrophotometrically and is proportional to the enzyme conjugate activity which in turn is related to analyte concentration (see FIG. 14).
MTX analyte antibodies and enzyme conjugate (DAMP-Y-S-G6PDH) were used in a homogeneous assay format to generate calibration curves using MTX standards as described in Example 12. Antibody reagents were prepared as described in Example 8 through 11 using DAMP-Y-KLH generated rabbit antibodies and cloned antibodies through B-cell. Enzyme conjugate DAMP-Y-S-G6PDH was used to prepare the conjugate reagent. A 6-point calibration curve was generated on the Beckman AU480 clinical chemistry analyzer as described in Examples 12. […]

[1] = antibody 200.0 μL/g, 0.00 to 0.05 μM
[2] = antibody 200.0 μL/g, 0.00 to 1.20 μM
[3] = antibody 200.0 μL/g, 0.05 to 0.15 μM
[4] = antibody 200.0 μL/g, 0.25 to 0.50 μM
[5] = antibody 200.0 μL/g, 0.50 to 1.20 μM
[6] = antibody 200.0 μL/g, Cals 0.00 μM
[7] = antibody 200.0 μL/g, Cals 0.05 μM
[8] = antibody 200.0 μL/g, Cals 0.15 μM
[9] = antibody 200.0 μL/g, Cals 0.50 μM
[10] = antibody 200.0 μL/g, Cals 1.20 μM
[11] = antibody 82.5 μL/g, Cals 0.00 μM
[12] = antibody 82.5 μL/g, Cals 0.05 μM
[13] = antibody 82.5 μL/g, Cals 0.15 μM
[14] = antibody 82.5 μL/g, Cals 0.50 μM
[15] = antibody 82.5 μL/g, Cals 1.20 μM
[16] = antibody 90.0 μL/g, Cals 0.00 μM
[17] = antibody 90.0 μL/g, Cals 0.05 μM
[18] = antibody 90.0 μL/g, Cals 0.15 μM
[19] = antibody 90.0 μL/g, Cals 0.50 μM
[20] = antibody 90.0 μL/g, Cals 1.20 μM
[21] = antibody 100.0 μL/g, Cals 0.00 μM
[22] = antibody 100.0 μL/g, Cals 0.05 μM
[23] = antibody 100.0 μL/g, Cals 0.15 μM
[24] = antibody 100.0 μL/g, Cals 0.50 μM
[25] = antibody 100.0 μL/g, Cals 1.20 μM

B1: 28H3/28K1: rabbit recombinant monoclonal antibody to MTX, VH SEQ ID NO: 1, VL SEQ ID NO: 5 (antibody)
VH: METGPRWLLLVAVLKGVQCQSLEESGGDLVKPGASLALTCKASGLDFSRSDHWICWVRQAPGKGLESIGCIYIGSGTFVRSGTTYYASWAKGRFTISKTSSTTVTLQMTSLTGADTATYFCARGFYATDGYGGPSYLNLWGQGTLVTVSSGQPKAPSVFPLAPCCGDTPSSTVTLGCLVKGYLPEPVTVTWNSGTLTNGVRTFPSVRQSSGLYSLSSVVSVTSSSQPVTCNVAHPATNTKVDKTVAPSTCSKPTCPPPELLGGPSVFIFPPKPKDTLMISRTPEVTCVVVDVSQDDPEVQFTWYINNEQVRTARPPLREQQFNSTIRVVSTLPITHQDWLRGKEFKCKVHNKALPAPIEKTISKARGQPLEPKVYTMGPPREELSSRSVSLTCMINGFYPSDISVEWEKNGKAEDNYKTTPAVLDSDGSYFLYNKLSVPTSEWQRGDVFTCSVMHEALHNHYTQKSISRSPGK
VL: MDTRAPTQLLGLLLLWLPGARCADIVMTQTPASVEAAVGGTVTIKCQASESISSYCSWFQQKPGQPPKLLIYRASTLESGVPSRFKGSGSGTQFTLTISDLECADAATYYCQSYAYSSPDSYGSTFGGGTEVVVKGDPVAPTVLIFPPAADQVATGTVTIVCVANKYFPDVTVTWEVDGTTQTTGIENSKTPQNSADCTYNLSSTLTLTSTQYNSHKEYTCKVTQGTTSVVQSFNRGDC
Separation [1]: 43.2 ΔmA/min.
Separation [2]: 157.5 ΔmA/min.
Separation [3]: 76.3 ΔmA/min.
Separation [4]: 0.2 ΔmA/min.
Separation [5]: 1.8 ΔmA/min.
Absorbance [6]: 0.4534 and 0.4555
Average Rate [6]: 454.45 mA/min
Absorbance [7]: 0.4989 and 0.4964
Average Rate [7]: 497.65 mA/min
Absorbance [8]: 0.5737 and 0.5742
Average Rate [8]: 573.95 mA/min
Absorbance [9]: 0.6112 and 0.6092
Average Rate [9]: 610.20 mA/min
Absorbance [10]: 0.6095 and 0.6144
Average Rate [10]: 611.95 mA/min

B2: 32H1/32K2: rabbit recombinant monoclonal antibody to MTX, VH SEQ ID NO: 9, VL SEQ ID NO: 13 (antibody)
VH: METGLRWLLLVAVLKGVQCQSLEESGGDLVKPGASLTLTCTASGLSFSSSDHWICWVRQAPGKGLESVGCIYIGSGTFVSSGTTYFASWAKGRSIISKTSSTTVTLQMTSLTAADTATYFCARGFYYTDGSGGPSYLNLWGQGTLVTVSSGQPKAPSVFPLAPCCGDTPSSTVTLGCLVKGYLPEPVTVTWNSGTLTNGVRTFPSVRQSSGLYSLSSVVSVTSSSQPVTCNVAHPATNTKVDKTVAPSTCSKPTCPPPELLGGPSVFIFPPKPKDTLMISRTPEVTCVVVDVSQDDPEVQFTWYINNEQVRTARPPLREQQFNSTIRVVSTLPITHQDWLRGKEFKCKVHNKALPAPIEKTISKARGQPLEPKVYTMGPPREELSSRSVSLTCMINGFYPSDISVEWEKNGKAEDNYKTTPAVLDSDGSYFLYNKLSVPTSEWQRGDVFTCSVMHEALHNHYTQKSISRSPGK
VL: MDTRAPTQLLGLLLLWLPGARCADIVMTQTPASVEAAVGGTVTIKCQASQTIYSYLSWFQQKPGQPPKLLIYSASTLASGVSSRFKGSRSGTESTLTISDLECADAATYYCQSYMYSSSSSFGSTFGGGTEVVVKGDPVAPTVLIFPPAADQVATGTVTIVCVANKYFPDVTVTWEVDGTTQTTGIENSKTPQNSADCTYNLSSTLTLTSTQYNSHKEYTCKVTQGTTSVVQSFNRGDC
Separation [1]: 103.5 ΔmA/min.
Separation [2]: 209.7 ΔmA/min.
Separation [3]: 105.7 ΔmA/min.
Separation [4]: −0.9 ΔmA/min.
Separation [5]: 0.3 ΔmA/min.
Absorbance [6]: 0.4007 and 0.3982
Average Rate [6]: 399.45 mA/min
Absorbance [7]: 0.5023 and 0.5035
Average Rate [7]: 502.90 mA/min
Absorbance [8]: 0.6091 and 0.6080
Average Rate [8]: 608.55 mA/min
Absorbance [9]: 0.6084 and 0.6093
Average Rate [9]: 608.85 mA/min
Absorbance [10]: 0.6108 and 0.6075
Average Rate [10]: 609.15 mA/min

B3: 64H1/64K1: rabbit recombinant monoclonal antibody to MTX, VH SEQ ID NO: 17, VL SEQ ID NO: 21 (antibody)
VH: METGLRWLLLVAVLKGVQCQSLEESGGRLVTPGTPMTLTCTASGFSLVKYYMTWVRQAPGKGLEYIGVIWSGGMTYYASWAKGRFTISRTSTTVDLKIISPTTEDTATYFCARERDYFDGYIGNDIWGQGTLVTVSSGQPKAPSVFPLAPCCGDTPSSTVTLGCLVKGYLPEPVTVTWNSGTLTNGVRTFPSVRQSSGLYSLSSVVSVTSSSQPVTCNVAHPATNTKVDKTVAPSTCSKPTCPPPELLGGPSVFIFPPKPKDTLMISRTPEVTCVVVDVSQDDPEVQFTWYINNEQVRTARPPLREQQFNSTIRVVSTLPITHQDWLRGKEFKCKVHNKALPAPIEKTISKARGQPLEPKVYTMGPPREELSSRSVSLTCMINGFYPSDISVEWEKNGKAEDNYKTTPAVLDSDGSYFLYNKLSVPTSEWQRGDVFTCSVMHEALHNHYTQKSISRSPGK
VL: MDTRAPTQLLGLLLLWLPGATFAQVLTQTPSSVSAAVGGTVTINCQSSQSVWSRHLSWFQQKPGQPPKLLIYKASTLASGVPSRFSGSGSGTQFTLTISDVQCDDAATYYCLGGYTCIRDDCRAFGGGTEVVVKGDPVAPTVLIFPPAADQVATGTVTIVCVANKYFPDVTVTWEVDGTTQTTGIENSKTPQNSADCTYNLSSTLTLTSTQYNSHKEYTCKVTQGTTSVVQSFNRGDC
Separation (antibody 82.5 μL/g, 0.00 to 0.05 μM): 39.3 ΔmA/min.
Separation (antibody 82.5 μL/g, 0.00 to 1.20 μM): 256.1 ΔmA/min.
Separation (antibody 82.5 μL/g, 0.05 to 0.15 μM): 76.7 ΔmA/min.
Separation (antibody 82.5 μL/g, 0.25 to 0.50 μM): 55.8 ΔmA/min.
Separation (antibody 82.5 μL/g, 0.50 to 1.20 μM): 22.6 ΔmA/min.
Absorbance [11]: 0.3378 and 0.3384
Average Rate [11]: 338.10 mA/min
Absorbance [12]: 0.3775 and 0.3772
Average Rate [12]: 377.35 mA/min
Absorbance [13]: 0.4548 and 0.4533
Average Rate [13]: 454.05 mA/min
Absorbance [14]: 0.5708 and 0.5725
Average Rate [14]: 571.65 mA/min
Absorbance [15]: 0.5943 and 0.5941
Average Rate [15]: 594.20 mA/min
Separation (antibody 90.0 μL/g, 0.00 to 0.05 μM): 35.3 ΔmA/min.
Separation (antibody 90.0 μL/g, 0.00 to 1.20 μM): 256.5 ΔmA/min.
Separation (antibody 90.0 μL/g, 0.05 to 0.15 μM): 69.9 ΔmA/min.
Separation (antibody 90.0 μL/g, 0.25 to 0.50 μM): 60.8 ΔmA/min.
Separation (antibody 90.0 μL/g, 0.50 to 1.20 μM): 30.8 ΔmA/min.
Absorbance [16]: 0.3355 and 0.3373
Average Rate [16]: 336.40 mA/min
Absorbance [17]: 0.3723 and 0.3711
Average Rate [17]: 371.70 mA/min
Absorbance [18]: 0.4421 and 0.4412
Average Rate [18]: 441.65 mA/min
Absorbance [19]: 0.5624 and 0.5618
Average Rate [19]: 562.10 mA/min
Absorbance [20]: 0.5925 and 0.5933
Average Rate [20]: 592.90 mA/min
Separation (antibody 100.0 μL/g, 0.00 to 0.05 μM): 28.3 ΔmA/min.
Separation (antibody 100.0 μL/g, 0.00 to 1.20 μM): 250.1 ΔmA/min.
Separation (antibody 100.0 μL/g, 0.05 to 0.15 μM): 63.1 ΔmA/min.
Separation (antibody 100.0 μL/g, 0.25 to 0.50 μM): 72.9 ΔmA/min.
Separation (antibody 100.0 μL/g, 0.50 to 1.20 μM): 38.7 ΔmA/min.
Absorbance [21]: 0.3401 and 0.3411
Average Rate [21]: 340.60 mA/min
Absorbance [22]: 0.3679 and 0.3698
Average Rate [22]: 368.85 mA/min
Absorbance [23]: 0.4318 and 0.4320
Average Rate [23]: 431.90 mA/min
Absorbance [24]: 0.5529 and 0.5511
Average Rate [24]: 552.00 mA/min
Absorbance [25]: 0.5913 and 0.5901
Average Rate [25]: 590.70 mA/min
